Assay results: US8815802 (Novo Nordisk, dated 2014)
Changes are numbered by the printed parent chain. Numbered stars: 1 amine (or outer) side, 2 acyl side, 3 side chain; on linkers, the order of the positions; unused ones are H or OH. Square brackets hold non-standard residues; d marks the D form. Side chains are listed from the residue outwards. Ends that are not written are not given here. * marks the point of attachment. X1 = 4‑(16-(1H-tetrazol-5-yl)hexadecanoylsulfamoyl)butanoyl, O=C(CCCCCCCCCCCCCCCc1nn[nH]n1)NS(=O)(=O)CCCC(=O)*; C18 diacid = O=C(O)CCCCCCCCCCCCCCCCC(=O)*; C16 diacid = O=C(O)CCCCCCCCCCCCCCC(=O)*; γGlu = O=C(O)[C@H](CCC(=O)[*:2])N[*:1]; NMeA = CN[C@@H](C)C(=O)O; AEEA = NCCOCCOCC(=O)O

Legend:
human GLP-1 receptor [1] = target: T1, human GLP-1 receptor (human, UniProt P43220 24-463); assay: SPA, displacement of 125I-GLP-1(7-36)NH2 from hGLP-1R membranes, 2.0% HSA
T1 construct: whole, on cells; Used as purified plasma membranes of the transfected hamster cell line, not as intact cells; also called hGLP-1
Description: (§1) 25 ul (micro liter) of test compounds were added to Optiplate. HSA ("high albumin" experiment containing 2% HSA), or buffer ("low albumin" experiment containing 0.005% HSA), was added (50 ul). 5-10 ug protein/sample was added (50 ul) corresponding to 0.1-0.2 mg protein/ml (to be preferably optimised for each membrane preparation). SPA-particles (Wheatgerm agglutinin SPA beads, Perkin Elmer, #RPNQ0001) were added in an amount of 0.5 mg/well (50 ul). […] The plates were sealed with PlateSealer and incubated for 120 minutes at 30° C. while shaking. The plates were centrifuged (1500 rpm, 10 min) and counted in Topcounter.

human GLP-1 receptor [2] = target: T1, human GLP-1 receptor; assay: SPA, displacement of 125I-GLP-1(7-36)NH2 from hGLP-1R membranes, 0.005% HSA
Description: as §1

B1: [Aib^8,Glu^30,His^31,Gln^34,Lys^36] GLP-1(7-37)yl-Glu^38-peptide amide (peptide)
peptide: HXEGTFTSDVSSYLEGQAAKEFIEHLVQGKGE
HELM: PEPTIDE1{H.[Aib].E.G.T.F.T.S.D.V.S.S.Y.L.E.G.Q.A.A.K.E.F.I.E.H.L.V.Q.G.K.G.E.[am]}$$$$V2.0; N-terminus assumed
SMILES: CC[C@H](C)[C@H](NC(=O)[C@H](Cc1ccccc1)NC(=O)[C@H](CCC(=O)O)NC(=O)[C@H](CCCCN)NC(=O)[C@H](C)NC(=O)[C@H](C)NC(=O)[C@H](CCC(N)=O)NC(=O)CNC(=O)[C@H](CCC(=O)O)NC(=O)[C@H](CC(C)C)NC(=O)[C@H](Cc1ccc(O)cc1)NC(=O)[C@H](CO)NC(=O)[C@H](CO)NC(=O)[C@@H](NC(=O)[C@H](CC(=O)O)NC(=O)[C@H](CO)NC(=O)[C@@H](NC(=O)[C@H](Cc1ccccc1)NC(=O)[C@@H](NC(=O)CNC(=O)[C@H](CCC(=O)O)NC(=O)C(C)(C)NC(=O)[C@@H](N)Cc1c[nH]cn1)[C@@H](C)O)[C@@H](C)O)C(C)C)C(=O)N[C@@H](CCC(=O)O)C(=O)N[C@@H](Cc1c[nH]cn1)C(=O)N[C@@H](CC(C)C)C(=O)N[C@H](C(=O)N[C@@H](CCC(N)=O)C(=O)NCC(=O)N[C@@H](CCCCN)C(=O)NCC(=O)N[C@@H](CCC(=O)O)C(N)=O)C(C)C
notes: unacylated analogue; also called (8Aib, 30E, 31H, 34Q, 36K, 38E)
Human GLP-1 receptor [1]
  IC50: ≤ 1000 nM
Human GLP-1 receptor [2]
  IC50: < 600 nM

B2: N^α([Aib^8,His^31,Gln^34]-GLP-1-(7-37)-peptidyl)-Lysine (peptide)
peptide: B1 peptide with E24A, K30R, E32K
modifications: Aib8 (GLP-1(7-37) numbering)
notes: unacylated analogue; also called (8Aib, 31H, 34Q, 38K)
Human GLP-1 receptor [1]
  IC50: ≤ 1000 nM
Human GLP-1 receptor [2]
  IC50: < 600 nM

B3: N^ε26-[2-(2-{2-[2-(2-{2-[(S)-4-Carboxy-4-(17-carboxyheptadecanoylamino)butyrylamino]ethoxy}ethoxy)acetylamino]ethoxy}ethoxy)acetyl][Aib^8,His^31,Gln^34]GLP-1(7- … (peptide)
peptide: HXEGTFTSDVSSYLEGQAAKEFIAHLVQGRG
modifications: Aib8; Lys26 N-epsilon-acylated (side chain as in name); GLP-1(7-37) numbering
Human GLP-1 receptor [1]
  IC50: ≤ 1000 nM
Human GLP-1 receptor [2]
  IC50: < 600 nM

B4: N^ε26-2,3-bis[[2-[2-[2-[[2-[2-[2-[[(4S)-4-carboxy-4-(13-carboxytridecanoylamino)butanoyl]amino]ethoxy]ethoxy]acetyl]amino]ethoxy]ethoxy]acetyl]amino]propanoyl-[ … (peptide)
peptide: B3 peptide
modifications: not fully specified; Aib8; Lys26 N-epsilon-acylated (branched side chain as in name); GLP-1(7-37) numbering
Human GLP-1 receptor [1]
  IC50: ≤ 1000 nM
Human GLP-1 receptor [2]
  IC50: < 600 nM

B5: N^ε26-[2-[2-[2-[[2-[2-[2-[[(4S)-4-carboxy-4-(15-carboxypentadecanoylamino)butanoyl]amino]ethoxy]ethoxy]acetyl]amino]ethoxy]ethoxy]acetyl][His^31,Gln^34]-GLP-1-( … (peptide)
peptide: HAEGTFTSDVSSYLEGQAAK([AEEA-AEEA-γGlu-C16 diacid])EFIAHLVQGRG
Human GLP-1 receptor [1]
  IC50: ≤ 1000 nM
Human GLP-1 receptor [2]
  IC50: < 600 nM

B6: N^ε26-4-[16-(1H-tetrazol-5-yl)hexadecanoylsulfamoyl]butanoyl-[His^31,Gln^34]-GLP-1-(7-37)-peptide (peptide)
peptide: HAEGTFTSDVSSYLEGQAAK(X1)EFIAHLVQGRG
Human GLP-1 receptor [1]
  IC50: ≤ 1000 nM
Human GLP-1 receptor [2]
  IC50: < 600 nM

B7: N^8-methyl, … (peptide)
peptide: H[NMeA]EGTFTSDVSSYLEGQAAK([AEEA-AEEA-γGlu-C18 diacid])EFIAHLVQGRG
Human GLP-1 receptor [1]
  IC50: ≤ 1000 nM
Human GLP-1 receptor [2]
  IC50: < 600 nM
